The target in assay [1] is T1, full-length mAKAPβ protein with an internal deletion of residues 1257 to 1886 (rat) (UniProt Q9WVC7).
T1 sequence: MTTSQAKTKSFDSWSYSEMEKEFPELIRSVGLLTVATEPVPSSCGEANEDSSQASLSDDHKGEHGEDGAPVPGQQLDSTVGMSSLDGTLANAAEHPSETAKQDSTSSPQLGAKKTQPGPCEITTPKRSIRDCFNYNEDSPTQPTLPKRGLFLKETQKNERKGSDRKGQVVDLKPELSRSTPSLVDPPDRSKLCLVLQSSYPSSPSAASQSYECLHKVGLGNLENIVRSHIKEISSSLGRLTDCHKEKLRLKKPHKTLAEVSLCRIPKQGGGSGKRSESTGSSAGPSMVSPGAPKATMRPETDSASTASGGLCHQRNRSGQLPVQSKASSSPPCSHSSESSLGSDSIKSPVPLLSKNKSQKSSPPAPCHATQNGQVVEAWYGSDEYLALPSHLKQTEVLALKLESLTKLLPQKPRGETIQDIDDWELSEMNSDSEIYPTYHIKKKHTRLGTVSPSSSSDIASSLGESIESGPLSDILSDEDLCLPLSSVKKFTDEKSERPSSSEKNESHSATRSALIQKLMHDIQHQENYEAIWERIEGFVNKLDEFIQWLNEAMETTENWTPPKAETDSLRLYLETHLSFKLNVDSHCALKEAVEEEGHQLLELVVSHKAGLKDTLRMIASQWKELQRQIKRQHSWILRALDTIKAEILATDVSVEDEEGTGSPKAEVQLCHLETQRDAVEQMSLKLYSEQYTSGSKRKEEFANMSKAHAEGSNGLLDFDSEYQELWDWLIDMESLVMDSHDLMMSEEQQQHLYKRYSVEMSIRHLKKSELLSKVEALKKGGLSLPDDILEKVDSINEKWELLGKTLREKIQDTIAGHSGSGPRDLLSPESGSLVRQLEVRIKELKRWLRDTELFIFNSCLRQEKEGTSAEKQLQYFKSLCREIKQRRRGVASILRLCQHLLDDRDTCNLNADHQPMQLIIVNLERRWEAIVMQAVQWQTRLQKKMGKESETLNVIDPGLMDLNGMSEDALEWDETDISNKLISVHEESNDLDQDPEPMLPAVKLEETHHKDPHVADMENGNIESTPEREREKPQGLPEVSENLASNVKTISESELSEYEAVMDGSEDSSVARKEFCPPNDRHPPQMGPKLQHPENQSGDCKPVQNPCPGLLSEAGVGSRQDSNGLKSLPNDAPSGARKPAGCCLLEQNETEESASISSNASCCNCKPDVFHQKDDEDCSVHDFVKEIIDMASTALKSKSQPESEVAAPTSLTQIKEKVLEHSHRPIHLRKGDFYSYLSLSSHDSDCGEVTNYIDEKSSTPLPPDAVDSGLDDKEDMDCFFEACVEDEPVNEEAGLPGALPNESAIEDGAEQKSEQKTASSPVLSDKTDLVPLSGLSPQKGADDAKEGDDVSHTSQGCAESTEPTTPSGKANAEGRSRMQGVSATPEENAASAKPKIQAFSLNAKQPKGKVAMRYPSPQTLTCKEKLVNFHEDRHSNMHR
The assay is described as follows: co-immunoprecipitation, heterologous cells.

The target in assay [2] is T2, bacterially expressed His-tagged mAKAP 1286 to 1833 (rat, UniProt Q9WVC7 1286-1833).
T2 construct: Covalently immobilised by amine coupling on a CM5 chip, 200 resonance units; not shown: His tag (pET30-based vector)
T2 sequence: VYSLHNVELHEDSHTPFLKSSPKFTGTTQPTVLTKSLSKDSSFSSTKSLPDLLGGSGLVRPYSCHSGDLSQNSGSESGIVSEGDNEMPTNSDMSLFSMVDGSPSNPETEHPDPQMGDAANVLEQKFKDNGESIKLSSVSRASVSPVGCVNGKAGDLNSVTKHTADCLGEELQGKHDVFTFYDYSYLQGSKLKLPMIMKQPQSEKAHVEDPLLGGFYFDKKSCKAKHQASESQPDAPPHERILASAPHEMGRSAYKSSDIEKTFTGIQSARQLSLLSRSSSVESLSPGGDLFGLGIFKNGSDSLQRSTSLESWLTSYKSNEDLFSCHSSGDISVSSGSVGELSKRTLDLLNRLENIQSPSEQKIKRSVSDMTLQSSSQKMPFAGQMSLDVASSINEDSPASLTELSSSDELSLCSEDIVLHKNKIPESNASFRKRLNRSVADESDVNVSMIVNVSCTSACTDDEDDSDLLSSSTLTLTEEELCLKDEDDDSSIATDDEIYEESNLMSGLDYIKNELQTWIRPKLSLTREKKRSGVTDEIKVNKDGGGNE
Briefly: SPR (BIAcore T100), His-mAKAP 1286-1833 immobilised, phospho-His-RSK3 analyte. On the procedure:
The inventors next tested whether mAKAP-RSK3 binding is direct (FIG. 7G of U.S. Pat. No. 9,132,174). […] The binding was direct and of high affinity (nanomolar KD). The inventors previously reported that once activated, RSK3 binds mAKAPα less well in cells (Michele 2005).
Surface Plasmon Resonance: SPR analysis was performed using a BIAcore T100. […] (Biacore amine coupling kit) to the surface of a sensor chip (BIAcore type CM5). His-RSK3 analytes (6.25-200 nmol/L) in HBS buffer (10 mmol/L Hepes, pH 7.4, 150 mmol/L NaCl, and 0.005% Surfactant P20) were injected at a flow rate of 30 μL/min for 5 minutes, followed by buffer alone for another 5 minutes. Sensorgrams were processed by BIAcore T100 evaluation software.

The target in assay [3] is T3, N-terminally truncated RSK3 mutant (HA-RSK3 DN30) (human, UniProt Q15349 31-733).
T3 construct: The range 31-733 is inferred from the label 'DN30'; not shown: hemagglutinin (HA) tag
Briefly: co-immunoprecipitation in heterologous cells. From the text:
To address this hypothesis, the inventors defined the mAKAP domains responsible for RSK3 binding. HA-tagged RSK3 was co-expressed in heterologous cells with myc-tagged mAKAPβ fragments and coimmunoprecipitated using a myc-tag antibody (FIGS. 7A and 7B of U.S. Pat. No. 9,132,174). […] As shown, the unique N-terminal domain of RSK3 bound full-length mAKAPβ (FIG. 4D of U.S. Pat. No. 9,132,174). The mAKAP RBD also bound HA-RSK3 1 to 42 (FIG. 7E of U.S. Pat. No. 9,132,174), but not to the N-terminally truncated RSK3 mutant (HA-RSK3 DN30) or the HA-tagged full-length RSK2 (FIG. 7F of U.S. Pat. No. 9,132,174).
Immunoprecipitations: HEK293 and COS-7 cells were transfected with Lipofectamine 2000 (Invitrogen) or Polyethylenimine “Max” (Polysciences). Cells (including myocytes) were lysed in buffer (20 mmol/L HEPES, pH 7.4, 150 mmol/L NaCl, 5 mmol/L EDTA, 0.5% Triton, 50 mmol/L NaF, 1 mmol/L sodium orthovanadate, 1 mmol/L DTT, and protease inhibitors). After centrifugation at 10,000×g for 10 minutes at 4° C., the clarified extracts were used for immunoprecipitation using appropriate antibodies (10 μg purified antibody or 1-5 μL whole serum) and 20 μL protein G sepharose (Millipore, Fastflow) for 3 hours to overnight at 4° C. The beads were washed 3-5 times with lysis buffer, and the immunoprecipitated proteins were eluted with 1× Laemmli buffer for western blotting. […]

Molecule “HA-tagged RSK3 (type 3 p90 ribosomal S6 kinase) (from UniProt Q15349 1-733) (enzyme)” yielded a reduction of binding against full-length mAKAPβ in assay [1] above 85%.

B1: His-RSK3 phosphorylated by ERK (enzyme)
chain: MDLSMKKFAVRRFFSVYLRRKSRSKSSSLSRLEEEGVVKEIDISHHVKEGFEKADPSQFELLKVLGQGSYGKVFLVRKVKGSDAGQLYAMKVLKKATLKVRDRVRSKMERDILAEVNHPFIVKLHYAFQTEGKLYLILDFLRGGDLFTRLSKEVMFTEEDVKFYLAELALALDHLHSLGIIYRDLKPENILLDEEGHIKITDFGLSKEAIDHDKRAYSFCGTIEYMAPEVVNRRGHTQSADWWSFGVLMFEMLTGSLPFQGKDRKETMALILKAKLGMPQFLSGEAQSLLRALFKRNPCNRLGAGIDGVEEIKRHPFFVTIDWNTLYRKEIKPPFKPAVGRPEDTFHFDPEFTARTPTDSPGVPPSANAHHLFRGFSFVASSLIQEPSQQDLHKVPVHPIVQQLHGNNIHFTDGYEIKEDIGVGSYSVCKRCVHKATDTEYAVKIIDKSKRDPSEEIEILLRYGQHPNIITLKDVYDDGKFVYLVMELMRGGELLDRILRQRYFSEREASDVLCTITKTMDYLHSQGVVHRDLKPSNILYRDESGSPESIRVCDFGFAKQLRAGNGLLMTPCYTANFVAPEVLKRQGYDAACDIWSLGILLYTMLAGFTPFANGPDDTPEEILARIGSGKYALSGGNWDSISDAAKDVVSKMLHVDPHQRLTAMQVLKHPWVVNREYLSPNQLSRQDVHLVKGAMAATYFALNRTPQAPRLEPVLSSNLAQRRGMKRLTSTRL
modifications: phosphorylated in vitro with ERK2; sites on this protein not stated here (S360 is named as the ERK site of HA-RSK3 in paragraph 123)
notes: also called Phospho-His-RSK3 (ERK2); not shown: His tag
For the molecule B1, the “fold decrease of binding affinity against unphosphorylated RSK3” value in assay [2] came out at 5 fold.

B2: His-RSK3 phosphorylated by both ERK and PDK1 (enzyme)
chain: MDLSMKKFAVRRFFSVYLRRKSRSKSSSLSRLEEEGVVKEIDISHHVKEGFEKADPSQFELLKVLGQGSYGKVFLVRKVKGSDAGQLYAMKVLKKATLKVRDRVRSKMERDILAEVNHPFIVKLHYAFQTEGKLYLILDFLRGGDLFTRLSKEVMFTEEDVKFYLAELALALDHLHSLGIIYRDLKPENILLDEEGHIKITDFGLSKEAIDHDKRAYSFCGTIEYMAPEVVNRRGHTQSADWWSFGVLMFEMLTGSLPFQGKDRKETMALILKAKLGMPQFLSGEAQSLLRALFKRNPCNRLGAGIDGVEEIKRHPFFVTIDWNTLYRKEIKPPFKPAVGRPEDTFHFDPEFTARTPTDSPGVPPSANAHHLFRGFSFVASSLIQEPSQQDLHKVPVHPIVQQLHGNNIHFTDGYEIKEDIGVGSYSVCKRCVHKATDTEYAVKIIDKSKRDPSEEIEILLRYGQHPNIITLKDVYDDGKFVYLVMELMRGGELLDRILRQRYFSEREASDVLCTITKTMDYLHSQGVVHRDLKPSNILYRDESGSPESIRVCDFGFAKQLRAGNGLLMTPCYTANFVAPEVLKRQGYDAACDIWSLGILLYTMLAGFTPFANGPDDTPEEILARIGSGKYALSGGNWDSISDAAKDVVSKMLHVDPHQRLTAMQVLKHPWVVNREYLSPNQLSRQDVHLVKGAMAATYFALNRTPQAPRLEPVLSSNLAQRRGMKRLTSTRL
modifications: phosphorylated in vitro with ERK2 and PDK1; sites on this protein not stated here (S360 ERK site and S218 PDK1 site are named for HA-RSK3 in paragraph 123)
notes: also called Phospho-His-RSK3 (ERK2 and PDK1); not shown: His tag
Consider B2, for which the “fold decrease of binding affinity against unphosphorylated RSK3” value in assay [2] is 8 fold.

B3: mAKAP RSK binding domain (RBD), mAKAP residues 1694 to 1833 (other, not shown: small tags and cut ends)
chain: ELSLCSEDIVLHKNKIPESNASFRKRLNRSVADESDVNVSMIVNVSCTSACTDDEDDSDLLSSSTLTLTEEELCLKDEDDDSSIATDDEIYEESNLMSGLDYIKNELQTWIRPKLSLTREKKRSGVTDEIKVNKDGGGNE
notes: also called mAKAP RBD
In the case of B3, in assay [3], the binding result is recorded as “no binding”.

Source of the values: patent US20190010493A1 (published 2019).
